Values of other authors in article PMC3012698, “Characterization of a Novel Interaction between Bcl-2 Members Diva and Harakiri” (PLoS ONE, 2010).

Experiments:
[1] = ref [10]
Procedure: Circular dichroism (CD) experiments were performed on Harakiri's cytosolic domain to obtain information on its conformational behavior. […] Thus, the cytosolic domain of Harakiri is largely unstructured. Consequently, the NMR spectra of Hrk_ΔTM show small amide ^1H chemical shift dispersion (from ∼7.9 to 8.7 ppm) and severe signal overlap ( Fig. 6 ). These spectral features together with the absen ...

Diva = conditions: ref [21]
Source text: Harakiri localizes in membranes and exerts proapoptotic activity by interacting with survival Bcl-XL and Bcl-2 [18]. Harakiri has not been characterized at the structural level except for its C-terminal sequence (∼30 amino acids), which is known from low-resolution techniques to adopt α-helical conformation in model membranes. Diva has also been found predominantly in membranes [20]–[21]. However, little functional data on Diva is available. Specifically, previous independent reports indicate that Diva can have both pro- or antiapoptotic function [20]–[21]. Diva has also been ...

Molecule	structural state of unbound BH3-only protein [1]	binding to Diva (co-immunoprecipitation) (Diva)
Bad: BH3-only protein Bad (protein, UniProt Q92934 1-168, looked up) Bcl2-associated agonist of …: MFQIPEFEPSEQEDSSSAERGLGPSPAGDGPSGSGKHHRQAPGLLWDASHQQEQPTSSSHHGGAGAVEIRSRHSSYPAGTEDDEGMGEEPSPFRGRSRSAPPNLWAAQRYGRELRRMSDEFVDSFKKGLPRPKSAGTATQMRQSSSWTRVFQSWWDRNLGRGSSAPSQ	unstructured	
Bak: proapoptotic Bcl-2 member Bak (protein, UniProt Q16611 2-211, looked up) Bcl-2 homologous …: ASGQGPGPPRQECGEPALPSASEEQVAQDTEEVFRSYVFYRHQQEQEAEGVAAPADPEMVTLPLQPSSTMGQVGRQLAIIGDDINRRYDSEFQTMLQHLQPTAENAYEYFTKIATSLFESGINWGRVVALLGFGYRLALHVYQHGLTGFLGQVTRFVVDFMLHHCIARWIAQRGGWVAALNLGNGPILNVLVVLGVVLLGQFVVRRFFKS		bind
Bik: proapoptotic Bcl-2 member Bik (protein, UniProt Q13323 1-160, looked up) Bcl-2-interacting killer: MSEVRPLSRDILMETLLYEQLLEPPTMEVLGMTDSEEDLDPMEDFDSLECMEGSDALALRLACIGDEMDVSLRAPRLAQLSEVAMHSLGLAFIYDQTEDIRDVLRSFMDGFTTLKENIMRFWRSPNPGSWVSCEQVLLALLLLLALLLPLLSGGLHLLLK		bind
